# Residue numbers refer to the chain shown, from its start.
# T1: mouse FcγRII extracellular domain, C-terminal His tag (mouse, UniProt P08101 30-210)
# T1 construct: Whole entry named; also called mFcγRII; mFcgRII
# T1 sequence: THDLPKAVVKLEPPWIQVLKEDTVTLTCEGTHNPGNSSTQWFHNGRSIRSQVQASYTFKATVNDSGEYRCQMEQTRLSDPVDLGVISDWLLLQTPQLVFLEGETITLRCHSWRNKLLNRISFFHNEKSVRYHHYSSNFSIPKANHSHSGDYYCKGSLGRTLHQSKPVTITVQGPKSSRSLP
# T2: mouse FcγRIII extracellular domain, C-terminal His tag (mouse, UniProt P08508 31-215)
# T2 construct: Whole entry named; also called mFcγRIII; mFcgRIII
# T2 chain: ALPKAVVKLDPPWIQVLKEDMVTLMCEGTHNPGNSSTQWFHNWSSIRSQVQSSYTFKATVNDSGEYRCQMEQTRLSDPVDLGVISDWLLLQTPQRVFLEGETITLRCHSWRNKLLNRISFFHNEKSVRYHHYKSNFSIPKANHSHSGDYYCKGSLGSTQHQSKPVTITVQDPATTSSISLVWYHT
# T3: mouse FcγRIII extracellular domain with C-terminal His tag (mouse, UniProt P08508 31-215)
# T3 construct: Made on the basis of NCBI NP-034318.2; also called mFcγRIII; mFcgRIII
# T3 chain: T2 chain
# B1: H237-MB594/MRAL-k0 (antibody, mouse IgG1, kappa)
# heavy: QVQLQESGPGLVKPSETLSLTCAVSGHSISHDHAWSWVRQPPGEGLEWIGFISYSGITNYNPSLQGRVTISRDNSKNTLYLQMNSLRAEDTAVYYCARSLARTTAMDYWGEGTLVTVSSAKTTPPSVYPLAPGSAAQTNSMVTLGCLVKGYFPEPVTVTWNSGSLSSGVHTFPAVLQSDLYTLSSSVTVPSSTWPSETVTCNVAHPASSTKVDKKIVPRDCGCKPCICEVPEEESVFIFPPKPKDVLTITLTPKVTCVVVDISKDDPEVQFSWFVDDVEVHTAQTQPREEQFNSTFRSVSELPIMHQDWLNGKEFKCRVNSAAFPAPIEKTISKTKGRPKAPQVYTIPPPKEQMAKDKVSLTCMITDFFPEDITVEWQWNGQPAENYKNTQPIMDTDGSYFVYSKLNVQKSNWEAGNTFTCSVLHEGLHNHHTEKSLSHSPGK
# light: not shown
# notes: copies: 2 + 2
# B2: H237-MB476/MRAL-k0 (antibody, mouse IgG1, kappa)
# heavy: B1 heavy with E229Q, V230P, P231N, E233V, S235E
# light: not shown
# notes: copies: 2 + 2
# B3: H237-MB534/MRAL-k0 (antibody, mouse IgG1, kappa)
# heavy: B1 heavy with E229Q, V230P, P231N, E233V, S235E, S294L, N320D, K330R
# light: not shown
# notes: copies: 2 + 2
# B4: H237-MB526/MRAL-k0 (antibody, mouse IgG1, kappa)
# heavy: B1 heavy with E229Q, V230P, P231N, E233V, S235E, S294L
# light: not shown
# notes: copies: 2 + 2
# B5: H237-MB533/MRAL-k0 (antibody, mouse IgG1, kappa)
# heavy: B1 heavy with E229Q, V230P, P231N, E233V, S235E, S294L, N320D, A322D
# light: not shown
# notes: copies: 2 + 2
# B6: H237-MB532/MRAL-k0 (antibody, mouse IgG1, kappa)
# heavy: B1 heavy with E229Q, V230P, P231N, E233V, S235E, A322D, K330R
# light: not shown
# notes: copies: 2 + 2
# B7: H237-MB531/MRAL-k0 (antibody, mouse IgG1, kappa)
# heavy: B1 heavy with E229Q, V230P, P231N, E233V, S235E, N320D, K330R
# light: not shown
# notes: copies: 2 + 2
# B8: H237-MB530/MRAL-k0 (antibody, mouse IgG1, kappa)
# heavy: B1 heavy with E229Q, V230P, P231N, E233V, S235E, N320D, A322D
# light: not shown
# notes: copies: 2 + 2
# B9: H237-MB535/MRAL-k0 (antibody, mouse IgG1, kappa)
# heavy: B1 heavy with E229Q, V230P, P231N, E233V, S235E, S294L, A322D, K330R
# light: not shown
# notes: copies: 2 + 2
# B10: H237-MB528/MRAL-k0 (antibody, mouse IgG1, kappa)
# heavy: B1 heavy with E229Q, V230P, P231N, E233V, S235E, S294L, A322D
# light: not shown
# notes: copies: 2 + 2
# B11: H237-MB529/MRAL-k0 (antibody, mouse IgG1, kappa)
# heavy: B1 heavy with E229Q, V230P, P231N, E233V, S235E, S294L, K330R
# light: not shown
# notes: copies: 2 + 2
# B12: H237-MB536/MRAL-k0 (antibody, mouse IgG1, kappa)
# heavy: B1 heavy with E229Q, V230P, P231N, E233V, S235E, N320D, A322D, K330R
# light: not shown
# notes: copies: 2 + 2
# B13: H237-MB527/MRAL-k0 (antibody, mouse IgG1, kappa)
# heavy: B1 heavy with E229Q, V230P, P231N, E233V, S235E, S294L, N320D
# light: not shown
# notes: copies: 2 + 2
# B14: H237-MB537/MRAL-k0 (antibody, mouse IgG1, kappa)
# heavy: B1 heavy with E229Q, V230P, P231N, E233V, S235E, S294L, N320D, A322D, K330R
# light: not shown
# notes: copies: 2 + 2
# B15: H237-mIgG1/MRAL-k0 (antibody)
# heavy: B1 heavy with E229T, E233V, E234S
# light: not shown
# notes: copies: 2 + 2
# Target: T1, mouse FcγRII extracellular domain, …
# Assay: SPR (Biacore T200); KD of H237-mIgG1/MRAL-k0 / KD of variant
row,relative mFcγRII-binding activity (mIgG1 = 1) [fold],Binder
1,1.85,B1

# Target: T2, mouse FcγRIII extracellular domain, …
# Assay: as above
row,relative mFcγRIII-binding activity (mIgG1 = 1) [fold],Binder
1,0.1,B1

# Target: T1, mouse FcγRII extracellular domain, …
# Assay: as above
# Remark: another data set of the same source
# Source text: (§1) The antibody H chain variable region used was the variable region H237 (SEQ ID NO: 1) of the H chain VH3-IgG1 of the anti-IL-6 receptor antibody Fv4-IgG1 described in WO2009/125825. The antibody L chain commonly used was the L chain MRAL-k0 (SEQ ID NO: 2) of the anti-IL-6 receptor antibody tocilizumab. The aforementioned 7 variants were used as templates to substitute the amino acids at the alteration sites by the amino acids before the alteration. These variants were expressed and purified by the method of Reference Example 1 and evaluated for their binding to mFcγRII and mFcγRIII by the method of Reference Example 2 using Biacore T200.
# (§2) Each altered antibody was analyzed for its interaction with each Fcγ receptor prepared above using Biacore T100 (GE Healthcare Japan Corp.), Biacore T200 (GE Healthcare Japan Corp.), Biacore A100, or Biacore 4000. The running buffer used was HBS-EP+ (GE Healthcare Japan Corp.). The assay temperature was set to 25° C. The sensor chips used were chips prepared by immobilizing Protein L (ACTIGEN or BioVision) onto Series S Sensor Chip CM5 (GE Healthcare Japan Corp.) or Series S Sensor Chip CM4 (GE Healthcare Japan Corp.) by the amine coupling method.
row,relative mFcγRII-binding activity (mIgG1 = 1) [fold],Binder
1,1.3,B1

# Target: T2, mouse FcγRIII extracellular domain, …
# Assay: as above
# Remark: another data set of the same source
# Source text: as §1, §2
row,relative mFcγRIII-binding activity (mIgG1 = 1) [fold],Binder
1,0.057,B1

# Target: T2, mouse FcγRIII extracellular domain, …
# Assay: as above
# Remark: another data set of the same source
# Description: as §2
# (§3) In order to calculate the KD value of each altered antibody for FcγR, kinetic analysis was conducted according to the following method: first, the antibody of interest was captured onto any of these chips and allowed to interact with mFcγR diluted with a running buffer. For the obtained sensorgram, the assay results were globally fit into the 1:1 Langmuir binding model using Biacore Evaluation Software to calculate an association rate constant ka (L/mol/s) and a dissociation rate constant kd (1/s). From these values, the dissociation constant KD (mol/L) was calculated.
row,relative mFcγRIII-binding activity (mIgG1 = 1) [fold],Binder
1,2.6,B2
2,33.8,B3
3,8.5,B4
4,7.2,B5
5,6.2,B6
6,3.3,B7
7,8,B8
8,8.5,B9
9,14.6,B10
10,5.9,B11
11,7.7,B12
12,5.5,B13
13,8.9,B14

# Target: T3, mouse FcγRIII extracellular domain with …
# Assay: SPR Biacore T200
row,Kd [nM],Binder
1,282,B15

# Target: T1, mouse FcγRII extracellular domain, …
# Assay: SPR (Biacore T200), 1:1 fit
# Description: as §2, §3
row,Kd [nM],Binder
1,0.804,B2
2,0.499,B3
3,0.904,B4
4,0.534,B5
5,0.639,B6
6,0.918,B7
7,0.337,B8
8,0.498,B9
9,0.56,B10
10,0.745,B11
11,0.53,B12
12,0.768,B13
13,0.412,B14

# Target: T2, mouse FcγRIII extracellular domain, …
# Assay: SPR (Biacore T200), 1:1 fit
# Description: as §2, §3
row,Kd [nM],Binder
1,107,B2
2,8.34,B3
3,33,B4
4,39,B5
5,45.4,B6
6,85,B7
7,35.1,B8
8,33.2,B9
9,19.3,B10
10,47.6,B11
11,36.8,B12
12,51,B13
13,31.7,B14

# Target: T3, mouse FcγRIII extracellular domain with …
# Assay: SPR Biacore T200
# Remark: another data set of the same source
# Description: as §2, §3
row,Kd [nM],Binder
1,282,B15

# From patent US20150203577A1 (Chugai, published 2015)
